In assay [1] the target is T1, Growth Hormone Receptor (GHR) immobilized on a high binding plate (UniProt P10912 19-264, limits assumed).
T1 sequence (looked up): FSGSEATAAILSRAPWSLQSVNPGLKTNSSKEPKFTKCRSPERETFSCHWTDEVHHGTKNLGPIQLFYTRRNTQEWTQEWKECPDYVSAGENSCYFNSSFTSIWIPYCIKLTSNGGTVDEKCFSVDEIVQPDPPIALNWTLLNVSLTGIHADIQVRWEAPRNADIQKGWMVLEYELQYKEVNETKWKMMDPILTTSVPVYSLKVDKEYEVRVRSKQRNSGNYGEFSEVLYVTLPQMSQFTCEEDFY
In words: competition ELISA: Fab titrated on plate-bound GHR preincubated with 200 nM GH (the legend of 6A names B2036), anti-human Fab-HRP. The method, then:
200 nM of GHR was immobilized on a 96-well high binding plate (Geiner Bio) and blocked with 5% BSA overnight. […] The Fab binding to GHR was detected using HRP-conjugated anti-human (Fab)2 antibody (Jackson ImmunoResearch, 1:5000 dilution in PBST), and the signal was developed with TMB substrate.
Background: In an ELISA, binding on a coated surface is turned into a signal by an enzyme label.

In assay [2] the target is T2, Pig GHR_Fc with 10x His-tag (pig, UniProt P19756 19-264, limits assumed).
T2 construct: not shown: Fc domain and 10x His-tag
T2 sequence (looked up): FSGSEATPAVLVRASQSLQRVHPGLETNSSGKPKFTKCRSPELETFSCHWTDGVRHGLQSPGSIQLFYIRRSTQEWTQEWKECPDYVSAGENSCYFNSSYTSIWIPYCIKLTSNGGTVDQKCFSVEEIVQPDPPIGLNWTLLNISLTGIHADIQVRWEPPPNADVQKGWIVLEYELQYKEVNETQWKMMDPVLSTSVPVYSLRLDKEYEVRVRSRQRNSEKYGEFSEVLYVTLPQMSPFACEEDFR
Description: SPR, GHR_Fc-10xHis on Ni-NTA chip, Fab in 2-fold dilutions from 50 nM, 1:1 fit. How it is done: (§1) Surface plasmon resonance (SPR) measurements were conducted in a MASS-1 (Bruker) instrument. The target GHR-Fc (50 nM) with a 10× His-tag was captured in a Ni-NTA sensor chip. […] Flow rate was 30 ul/min and temperature 20° C. Sensograms were corrected through double referencing and fitting was done with a 1:1 binding model using the Sierra Analyzer (Bruker). For epitope binning experiments, the first FAB was injected at saturating concentrations (200 nM), followed by injection a second FAB in equal molar mixture with the first FAB, and the response unit (RU) was recorded.
(§2) Target GHR_Fc (from different species) were immobilized via a 10× His-tag to a Ni-NTA sensor chip. […] Sensograms were corrected through double referencing and 1:1 binding model fit was done using Sierra Analyzer (Bruker). To reveal different epitopes on GHR, the epitope binning experiment was performed.
Background: SPR reads the build-up and loss of mass on a sensor chip optically.

In assay [3] the target is T3, Rat GHR_Fc with 10x His-tag (rat, UniProt P16310 19-265, limits assumed).
T3 construct: not shown: Fc domain and 10x His-tag
T3 sequence (looked up): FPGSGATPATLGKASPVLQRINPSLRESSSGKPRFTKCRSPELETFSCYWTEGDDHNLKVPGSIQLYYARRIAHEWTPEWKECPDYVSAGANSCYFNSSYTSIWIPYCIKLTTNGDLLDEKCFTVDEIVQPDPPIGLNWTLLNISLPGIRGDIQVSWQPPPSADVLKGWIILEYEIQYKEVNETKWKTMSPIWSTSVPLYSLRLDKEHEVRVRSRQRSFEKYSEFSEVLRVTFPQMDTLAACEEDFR
Described as above. The method, then:
as §1, §2

Assay [4] concerns the target T4, Cyno GHR_Fc with 10x His-tag (Cyno, UniProt A0A2K5WH01 19-262).
T4 construct: not shown: Fc domain and 10x His-tag
T4 sequence: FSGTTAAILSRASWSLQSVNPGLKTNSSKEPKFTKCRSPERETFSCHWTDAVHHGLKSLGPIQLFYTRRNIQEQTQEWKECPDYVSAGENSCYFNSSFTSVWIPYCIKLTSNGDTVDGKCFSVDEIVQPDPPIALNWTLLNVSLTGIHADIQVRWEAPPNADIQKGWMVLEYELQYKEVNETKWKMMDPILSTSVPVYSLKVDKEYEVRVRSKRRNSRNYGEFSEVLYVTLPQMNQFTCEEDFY
Described as above. How it is done: as §1, §2

Assay [5] has as its target T5, Murine GHR_Fc with 10x His-tag (murine, UniProt P16882 25-273, limits assumed).
T5 construct: not shown: Fc domain and 10x His-tag
T5 sequence (looked up): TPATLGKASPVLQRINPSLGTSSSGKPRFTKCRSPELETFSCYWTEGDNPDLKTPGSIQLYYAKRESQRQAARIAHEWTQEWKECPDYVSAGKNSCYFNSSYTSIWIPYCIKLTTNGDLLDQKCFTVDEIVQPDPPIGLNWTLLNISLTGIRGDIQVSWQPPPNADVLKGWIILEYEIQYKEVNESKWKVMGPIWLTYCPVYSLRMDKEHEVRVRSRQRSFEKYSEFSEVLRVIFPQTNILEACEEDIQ
The assay is described as above. How it is done: as §1, §2

Assay [6] concerns the target T6, Rabbit GHR_Fc with 10x His-tag (rabbit, UniProt P19941 19-264, limits assumed).
T6 construct: not shown: Fc domain and 10x His-tag
T6 sequence (looked up): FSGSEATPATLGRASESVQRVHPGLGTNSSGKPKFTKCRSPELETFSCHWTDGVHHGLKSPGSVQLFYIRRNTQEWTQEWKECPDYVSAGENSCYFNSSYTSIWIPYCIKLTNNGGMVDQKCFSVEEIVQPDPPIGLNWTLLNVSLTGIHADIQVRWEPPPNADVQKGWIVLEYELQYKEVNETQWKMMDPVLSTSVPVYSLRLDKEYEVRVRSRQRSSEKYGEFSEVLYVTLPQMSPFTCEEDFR
The assay is described as above. The method, then:
as §1, §2

The target of assay [7] is T7, Human GHR-Fc-10x His (extracellular region of human growth hormone receptor fused to human Fc) (human, UniProt P10912 50-256).
T7 construct: Captured by its 10x His-tag on a Ni-NTA sensor chip for SPR; not shown: human Fc domain of vector pAB1200 with its linker; 10x His-tag replacing the AviTag
T7 sequence (looked up): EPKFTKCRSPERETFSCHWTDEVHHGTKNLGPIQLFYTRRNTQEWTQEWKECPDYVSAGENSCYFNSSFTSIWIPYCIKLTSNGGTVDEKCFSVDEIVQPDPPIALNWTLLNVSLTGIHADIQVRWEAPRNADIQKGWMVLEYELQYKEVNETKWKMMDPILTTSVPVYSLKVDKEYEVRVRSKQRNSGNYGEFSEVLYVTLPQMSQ
The description is as above. How it is done:
as §1, §2

Substitutions are numbered along the chain they refer to.

B1: GHR_TS10 Fab (Fab, V domains shown)
VH: EVQLVESGGGLVQPGGSLRLSCAASGFNFSSSYIHWVRQAPGKGLEWVAYISPSSGYTSYADSVKGRFTISADTSKNTAYLQMNSLRAEDTAVYYCARQYYGGWYGFGMDYWGQGTLVTVSS
VL: DIQMTQSPSSLSASVGDRVTITCRASQSVSSAVAWYQQKPGKAPKLLIYSASSLYSGVPSRFSGSRSGTDFTLTISSLQPEDFATYYCQQWHSYLITFGQGTKVEIKR
Usually EC50 stands for the concentration giving half of the maximal effect. A low value points to greater potency. B1: the EC50 in assay [1] was found to be 3.5 nM.

B2: GHR_TS23 Fab (Fab, V domains shown)
VH: EVQLVESGGGLVQPGGSLRLSCAASGFNFYYSSIHWVRQAPGKGLEWVASIYSYSGSTSYADSVKGRFTISADTSKNTAYLQMNSLRAEDTAVYYCARQYWYYGGYFYYGIDYWGQGTLVTVSS
VL: B1 VL with W91Y, H92W, Y94T
B2 showed a concentration for a half-maximal effect (EC50) in assay [1] of 3.5 nM.

B3: GHR_TS40 Fab (Fab, V domains shown)
VH: EVQLVESGGGLVQPGGSLRLSCAASGFNVSYYYIHWVRQAPGKGLEWVASIYPSSGYTSYADSVKGRFTISADTSKNTAYLQMNSLRAEDTAVYYCARYYWPASYWSGYSALDYWGQGTLVTVSS
VL: B1 VL with W91Y, H92P, S93W, Y94G
In the case of B3, in assay [1], a half-maximal response (EC50) required 132 nM.

B4: GHR_TS23 Fab (Fab, V domains shown)
VH: B2 VH
VL: B1 VL with W91Y, H92W, Y94T
notes: Fab from the cross-species phage display selection
Broadly, the Kd is the free concentration of one partner at which half of the binding sites on the other are occupied at equilibrium, for simple one-to-one binding. Read a low Kd as tighter binding. In general, koff refers to a measure of how fast the partners let go of each other. A higher koff goes with a short-lived complex. One may read the kon as the second-order rate constant of association. Higher therefore signals faster complex formation. Consider B4, for which the Kd in assay [2] amounted to 1.8 nM; in assay [3], 8.2 nM; in assay [4], 1.3 nM; in assay [5], 7.8 nM; in assay [6], 2.5 nM; in assay [7] it was 0.2 nM. Besides, the koff came to 0.0012 s⁻¹ in assay [2]; 0.0031 s⁻¹ in assay [3]; 0.00038 s⁻¹ in assay [4]; 0.0051 s⁻¹ in assay [5]; 0.0014 s⁻¹ in assay [6]; 0.00017 s⁻¹ in assay [7]. For the same molecule, the kon in assay [2] stood at 670000 M⁻¹ s⁻¹; in assay [3] it was 370000 M⁻¹ s⁻¹; in assay [4], 300000 M⁻¹ s⁻¹; in assay [5] it was 660000 M⁻¹ s⁻¹; in assay [6] it was 560000 M⁻¹ s⁻¹; in assay [7] it was 830000 M⁻¹ s⁻¹.
